Laboratory results reported in FireProtDB (doi:10.1038/nsb0196-54).

B1: Regulatory protein rop, P03051 (parent)
chain: MTKQEKTALNMARFIRSQTLTLLEKLNELDADEQADICESLHDHADELYRSCLARFGDDGENL

Variants of: B1
Conditions: Escherichia coli, pH 7, Thermal, CD, Sodium phosphate 10 mM, NaCl 350 mM, structure 1ROP, whole UniProt chain shown; for ddG of mutation (higher = less stable): 69 °C

With MTKQEKTALNMARFIRSQTLTLLEKLNELGADEQADICESLHDHADELYRSCLARFGDDGENL the “ddG of mutation (higher = less stable)” value was -2 kcal/mol, the Tm was 80.3 °C and the “change of melting temperature, mutant - wild type (higher = more stable)” value (“change of melting temperature, mutant” below) was 11.6 °C.

With MTKQEKTALNMARFIRSQTLTLLEKLNELAADEQADICESLHDHADELYRSCLARFGDDGENL the “ddG of mutation (higher = less stable)” value was -0.3 kcal/mol, the Tm was 71.2 °C and the “change of melting temperature, mutant” value was 2.5 °C.

In the case of MTKQEKTALNMARFIRSQTLTLLEKLNELCADEQADICESLHDHADELYRSCLARFGDDGENL, the “ddG of mutation (higher = less stable)” value is reported as -0.8 kcal/mol, the Tm is reported as 74 °C and the “change of melting temperature, mutant” value is reported as 5.3 °C.

In the case of MTKQEKTALNMARFIRSQTLTLLEKLNELNADEQADICESLHDHADELYRSCLARFGDDGENL, the “ddG of mutation (higher = less stable)” value is reported as -0.8 kcal/mol, the Tm is reported as 73.8 °C and the “change of melting temperature, mutant” value is reported as 5.1 °C.

For MTKQEKTALNMARFIRSQTLTLLEKLNELHADEQADICESLHDHADELYRSCLARFGDDGENL, the “ddG of mutation (higher = less stable)” value was -0.9 kcal/mol, the Tm was 74.5 °C and the “change of melting temperature, mutant” value was 5.8 °C.

In the case of MTKQEKTALNMARFIRSQTLTLLEKLNELMADEQADICESLHDHADELYRSCLARFGDDGENL, the “ddG of mutation (higher = less stable)” value is reported as -0.6 kcal/mol, the Tm is reported as 72.7 °C and the “change of melting temperature, mutant” value is reported as 4 °C.

With MTKQEKTALNMARFIRSQTLTLLEKLNELTADEQADICESLHDHADELYRSCLARFGDDGENL the “ddG of mutation (higher = less stable)” value was 0.4 kcal/mol, the Tm was 66.6 °C and the “change of melting temperature, mutant” value was -2.1 °C.

With MTKQEKTALNMARFIRSQTLTLLEKLNELIADEQADICESLHDHADELYRSCLARFGDDGENL the “ddG of mutation (higher = less stable)” value was 0.8 kcal/mol, the Tm was 63.4 °C and the “change of melting temperature, mutant” value was -5.3 °C.

For MTKQEKTALNMARFIRSQTLTLLEKLNELSADEQADICESLHDHADELYRSCLARFGDDGENL, the “ddG of mutation (higher = less stable)” value was -1 kcal/mol, the Tm was 74.7 °C and the “change of melting temperature, mutant” value was 6 °C.

For MTKQEKTALNMARFIRSQTLTLLEKLNELQADEQADICESLHDHADELYRSCLARFGDDGENL, the “ddG of mutation (higher = less stable)” value was -1.8 kcal/mol, the Tm was 79.1 °C and the “change of melting temperature, mutant” value was 10.4 °C.

For MTKQEKTALNMARFIRSQTLTLLEKLNELVADEQADICESLHDHADELYRSCLARFGDDGENL, the “ddG of mutation (higher = less stable)” value was 0.4 kcal/mol, the Tm was 66.6 °C and the “change of melting temperature, mutant” value was -2.1 °C.

For MTKQEKTALNMARFIRSQTLTLLEKLNELEADEQADICESLHDHADELYRSCLARFGDDGENL, the “ddG of mutation (higher = less stable)” value was -1 kcal/mol, the Tm was 74.9 °C and the “change of melting temperature, mutant” value was 6.2 °C.

For MTKQEKTALNMARFIRSQTLTLLEKLNELLADEQADICESLHDHADELYRSCLARFGDDGENL, the “ddG of mutation (higher = less stable)” value was 0.1 kcal/mol, the Tm was 68.4 °C and the “change of melting temperature, mutant” value was -0.3 °C.

With MTKQEKTALNMARFIRSQTLTLLEKLNELPADEQADICESLHDHADELYRSCLARFGDDGENL the “ddG of mutation (higher = less stable)” value was 1.6 kcal/mol, the Tm was 58.9 °C and the “change of melting temperature, mutant” value was -9.8 °C.

In the case of MTKQEKTALNMARFIRSQTLTLLEKLNELRADEQADICESLHDHADELYRSCLARFGDDGENL, the “ddG of mutation (higher = less stable)” value is reported as -0.8 kcal/mol.

With MTKQEKTALNMARFIRSQTLTLLEKLNELYADEQADICESLHDHADELYRSCLARFGDDGENL the “ddG of mutation (higher = less stable)” value was -0.2 kcal/mol, the Tm was 70.4 °C and the “change of melting temperature, mutant” value was 1.7 °C.

With MTKQEKTALNMARFIRSQTLTLLEKLNELFADEQADICESLHDHADELYRSCLARFGDDGENL the “ddG of mutation (higher = less stable)” value was 0.1 kcal/mol, the Tm was 68.3 °C and the “change of melting temperature, mutant” value was -0.4 °C.

With MTKQEKTALNMARFIRSQTLTLLEKLNELWADEQADICESLHDHADELYRSCLARFGDDGENL the “ddG of mutation (higher = less stable)” value was 0.4 kcal/mol, the Tm was 65.9 °C and the “change of melting temperature, mutant” value was -2.8 °C.

For MTKQEKTALNMARFIRSQTLTLLEKLNELKADEQADICESLHDHADELYRSCLARFGDDGENL, the “ddG of mutation (higher = less stable)” value was -0.9 kcal/mol, the Tm was 74.6 °C and the “change of melting temperature, mutant” value was 5.9 °C.
